In US20200283478A1 (Genentech, published 2020):
Square brackets hold non-standard residues; d marks the D form. Ends that are not written are not given here. * marks the point of attachment. Trp(6-Br) = N[C@@H](Cc1c[nH]c2cc(Br)ccc12)C(=O)O; Trp(6-Cl) = N[C@@H](Cc1c[nH]c2cc(Cl)ccc12)C(=O)O; Trp(6-F) = N[C@@H](Cc1c[nH]c2cc(F)ccc12)C(=O)O; Trp(6-Me) = Cc1ccc2c(C[C@H](N)C(=O)O)c[nH]c2c1; hArg = N=C(N)NCCCC[C@H](N)C(=O)O; Pentanoyl = CCCCC(=O)*

B1: Compound 186 (peptide)
peptide: Pentanoyl-[Trp(6-Cl)]NLVRIGLTR-NH2
SMILES: CCCCC(=O)N[C@@H](Cc1c[nH]c2cc(Cl)ccc12)C(=O)N[C@@H](CC(N)=O)C(=O)N[C@@H](CC(C)C)C(=O)N[C@H](C(=O)N[C@@H](CCCNC(=N)N)C(=O)N[C@H](C(=O)NCC(=O)N[C@@H](CC(C)C)C(=O)N[C@H](C(=O)N[C@@H](CCCNC(=N)N)C(N)=O)[C@@H](C)O)[C@@H](C)CC)C(C)C
B2: Compound 174 (peptide)
peptide: Pentanoyl-[Trp(6-F)]NLVRIGLTR-NH2
SMILES: CCCCC(=O)N[C@@H](Cc1c[nH]c2cc(F)ccc12)C(=O)N[C@@H](CC(N)=O)C(=O)N[C@@H](CC(C)C)C(=O)N[C@H](C(=O)N[C@@H](CCCNC(=N)N)C(=O)N[C@H](C(=O)NCC(=O)N[C@@H](CC(C)C)C(=O)N[C@H](C(=O)N[C@@H](CCCNC(=N)N)C(N)=O)[C@@H](C)O)[C@@H](C)CC)C(C)C
B3: Compound 191 (peptide)
peptide: Pentanoyl-WNLV[hArg]IGLLR-NH2
notes: also called n-BuC(O)-WNLV(homoR)IGLLR-NH2
B4: Compound 187 (peptide)
peptide: Pentanoyl-[Trp(6-Br)]NLVRIGLTR-NH2
SMILES: CCCCC(=O)N[C@@H](Cc1c[nH]c2cc(Br)ccc12)C(=O)N[C@@H](CC(N)=O)C(=O)N[C@@H](CC(C)C)C(=O)N[C@H](C(=O)N[C@@H](CCCNC(=N)N)C(=O)N[C@H](C(=O)NCC(=O)N[C@@H](CC(C)C)C(=O)N[C@H](C(=O)N[C@@H](CCCNC(=N)N)C(N)=O)[C@@H](C)O)[C@@H](C)CC)C(C)C
B5: Compound 175 (peptide)
peptide: Pentanoyl-[Trp(6-Me)]NLVRIGLTR-NH2
SMILES: CCCCC(=O)N[C@@H](Cc1c[nH]c2cc(C)ccc12)C(=O)N[C@@H](CC(N)=O)C(=O)N[C@@H](CC(C)C)C(=O)N[C@H](C(=O)N[C@@H](CCCNC(=N)N)C(=O)N[C@H](C(=O)NCC(=O)N[C@@H](CC(C)C)C(=O)N[C@H](C(=O)N[C@@H](CCCNC(=N)N)C(N)=O)[C@@H](C)O)[C@@H](C)CC)C(C)C

Each binder was assayed against T1, His-tagged PCSK9Δhelix (human, UniProt Q8NBP7 31-152; Q8NBP7 168-692) (assay: TR-FRET competition; His-PCSK9Δhelix, competitor Ab20).
T1 construct: Construct M1-Q692 with engineered TEV site, cut by TEV protease; new N-terminus of the catalytic domain is S-A168; also called His-PCSK9Δhelix
T1 sequence (Q8NBP7 31-152, stated change not applied, chain 1 of 2): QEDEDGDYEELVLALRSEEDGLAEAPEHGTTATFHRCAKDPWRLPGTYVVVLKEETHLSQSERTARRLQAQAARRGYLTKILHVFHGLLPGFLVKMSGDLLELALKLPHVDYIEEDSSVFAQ
T1 sequence (Q8NBP7 other isoform, or with tags, fused parts or gaps mutant, chain 2 of 2): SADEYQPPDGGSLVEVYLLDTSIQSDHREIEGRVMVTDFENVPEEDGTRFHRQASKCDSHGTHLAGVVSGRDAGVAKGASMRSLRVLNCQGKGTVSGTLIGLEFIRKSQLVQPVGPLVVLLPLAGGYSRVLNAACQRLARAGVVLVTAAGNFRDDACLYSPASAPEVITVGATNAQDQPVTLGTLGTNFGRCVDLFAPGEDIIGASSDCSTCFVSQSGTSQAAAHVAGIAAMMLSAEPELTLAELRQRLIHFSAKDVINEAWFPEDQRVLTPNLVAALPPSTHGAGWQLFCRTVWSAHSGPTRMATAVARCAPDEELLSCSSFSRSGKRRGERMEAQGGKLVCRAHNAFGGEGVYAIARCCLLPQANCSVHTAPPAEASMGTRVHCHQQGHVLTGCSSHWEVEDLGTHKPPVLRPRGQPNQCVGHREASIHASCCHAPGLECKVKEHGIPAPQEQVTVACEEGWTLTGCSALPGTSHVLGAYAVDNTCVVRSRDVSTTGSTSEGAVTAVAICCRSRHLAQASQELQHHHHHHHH
Description: Signal generation in the PCSK9 binding assays was dependent upon the binding interaction to bring into close proximity the His-tag on the PCSK9 and the Fc-tag on the ligand. Anti-His-APC was bound to the His-tag, and anti-Fc-europium was bound to the Fc-tag.
Compounds were solubilized and dilutions were prepared in DMSO. […] The plate was centrifuged to mix the well contents and allowed to incubate for 30 min. […] The normalized TR-FRET ratios were plotted as a function of the compound concentrations, and the IC₅₀ values were determined using a 4-parameter logistic regression.

IC50 | Binder
11 µM | B1
19 µM | WNLVRIGLLR (also: further groups not given here, Structure printed only as a drawing) [Compound 139]
9 µM | WNLVRIGLLR (also: further groups not given here, Structure printed only as a drawing) [Compound 132]
10 µM | WNLVRIGLLR (also: further groups not given here, Structure printed only as a drawing) [Compound 135]
19 µM | Ac-DLMPWNLVRIGLPR-NH2 [Compound 160]
12 µM | WNLVRIGLTR (also: further groups not given here, Structure printed only as a drawing) [Compound 189]
7 µM | WNLVRIGLTR (also: further groups not given here, Structure printed only as a drawing) [Compound 190]
9 µM | WNLVRIGLLR (also: further groups not given here, Structure printed only as a drawing) [Compound 136]
2.5 µM | WNLVRIGLLR (also: further groups not given here, Structure printed only as a drawing) [Compound 151]
1.7 µM | WNLVRIGLLR (also: further groups not given here, Structure printed only as a drawing) [Compound 146]
8.9 µM | WNLVRIGLLR (also: further groups not given here, Structure printed only as a drawing) [Compound 149]
3.9 µM | Ac-GLMPWNLVRIGLLR-NH2 [Compound 124]
7 µM | Ac-GGMPWNLVRIGLLR-NH2 [Compound 125]
6.7 µM | WNLVRIGLLR (also: further groups not given here, Structure printed only as a drawing) [Compound 131]
50 µM | Ac-MDSFPGWNLVRIGLLR-NH2 [Compound 153]
0.41 µM | WNLVRIGLLR (also: further groups not given here, Structure printed only as a drawing) [Compound 147]
4 µM | WNLVRIGLLR (also: further groups not given here, Structure printed only as a drawing) [Compound 144]
4.2 µM | WNLVRIGLLR (also: further groups not given here, Structure printed only as a drawing) [Compound 134]
50 µM | Ac-SFAFPGWNLVRIGLLR-NH2 [Compound 154]
2.2 µM | WNLVRIGLLR (also: further groups not given here, Structure printed only as a drawing) [Compound 145]
17 µM | WNLVRIGLLR (also: further groups not given here, Structure printed only as a drawing) [Compound 133]

IC50 | Binder
6.2 µM | B2
14 µM | Pentanoyl-WNLVRIGLLR [Compound 152]
36 µM | WNLVRIGLLR (also: further groups not given here, Structure printed only as a drawing) [Compound 141]
26 µM | WNLVRIGLLR (also: further groups not given here, Structure printed only as a drawing) [Compound 140]
19 µM | WNLVRIGLLR (also: further groups not given here, Structure printed only as a drawing) [Compound 126]
29 µM | WNLVRIGLLR (also: further groups not given here, Structure printed only as a drawing) [Compound 127]
1.3 µM | B3
50 µM | Ac-DSYPGWNLVRIGLLR-NH2 [Compound 155]
50 µM | Ac-ESYPGWNLVRIGLLR-NH2 [Compound 156]
15 µM | WNLVRIGLLR (also: further groups not given here, Structure printed only as a drawing) [Compound 142]
23 µM | WNLVRIGLLR (also: further groups not given here, Structure printed only as a drawing) [Compound 129]
7.5 µM | WNLVRIGLLR (also: further groups not given here, Structure printed only as a drawing) [Compound 128]
12 µM | Ac-DLMPWNLKRIGLLR-NH2 [Compound 158]
6.7 µM | WNLVRIGLLR (also: further groups not given here, Structure printed only as a drawing) [Compound 137]
8.2 µM | WNLVRIGLLR (also: further groups not given here, Structure printed only as a drawing) [Compound 150]
23 µM | WNLVRIGLLR (also: further groups not given here, Structure printed only as a drawing) [Compound 143]
36 µM | B4
4.9 µM | WNLVRIGLLR (also: further groups not given here, Structure printed only as a drawing) [Compound 138]
39 µM | B5
11 µM | WNLVRIGLLR (also: further groups not given here, Structure printed only as a drawing) [Compound 148]
8.6 µM | WNLVRIGLLR (also: further groups not given here, Structure printed only as a drawing) [Compound 130]

The binders below were run against T2, His-tagged, full-length PCSK9 (human, UniProt Q8NBP7 31-692) (assay: TR-FRET competition; His-PCSK9, competitor EGF(A)-Fc).
T2 construct: The secreted protein is autocleaved into a prodomain and a catalytic/Cys-rich chain that starts at S153; also called His-PCSK9
T2 sequence (Q8NBP7 other isoform, or with tags, fused parts or gaps limits assumed): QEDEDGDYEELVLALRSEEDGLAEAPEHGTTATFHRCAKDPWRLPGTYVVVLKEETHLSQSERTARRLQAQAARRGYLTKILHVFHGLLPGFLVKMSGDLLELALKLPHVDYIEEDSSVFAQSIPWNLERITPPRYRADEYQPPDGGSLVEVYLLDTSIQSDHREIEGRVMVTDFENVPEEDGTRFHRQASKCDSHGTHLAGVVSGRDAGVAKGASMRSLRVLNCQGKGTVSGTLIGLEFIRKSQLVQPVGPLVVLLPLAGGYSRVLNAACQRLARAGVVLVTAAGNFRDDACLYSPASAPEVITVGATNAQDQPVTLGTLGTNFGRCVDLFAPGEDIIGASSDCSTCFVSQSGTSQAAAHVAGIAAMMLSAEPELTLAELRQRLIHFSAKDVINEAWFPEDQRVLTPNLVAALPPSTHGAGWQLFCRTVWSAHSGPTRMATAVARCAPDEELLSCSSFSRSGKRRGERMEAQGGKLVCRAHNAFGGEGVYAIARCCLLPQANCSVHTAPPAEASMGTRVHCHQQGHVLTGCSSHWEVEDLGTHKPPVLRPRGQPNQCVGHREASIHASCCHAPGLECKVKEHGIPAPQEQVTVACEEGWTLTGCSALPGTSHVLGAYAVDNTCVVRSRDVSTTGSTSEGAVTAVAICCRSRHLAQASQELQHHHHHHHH

IC50 | Binder
31 µM | B1
≥ 50 µM | WNLVRIGLLR (also: further groups not given here, Structure printed only as a drawing) [Compound 139]
≥ 50 µM | WNLVRIGLLR (also: further groups not given here, Structure printed only as a drawing) [Compound 132]
≥ 50 µM | WNLVRIGLLR (also: further groups not given here, Structure printed only as a drawing) [Compound 135]
≥ 50 µM | Ac-DLMPWNLVRIGLPR-NH2 [Compound 160]
38 µM | WNLVRIGLTR (also: further groups not given here, Structure printed only as a drawing) [Compound 189]
30 µM | WNLVRIGLTR (also: further groups not given here, Structure printed only as a drawing) [Compound 190]
≥ 50 µM | WNLVRIGLLR (also: further groups not given here, Structure printed only as a drawing) [Compound 136]
6.9 µM | WNLVRIGLLR (also: further groups not given here, Structure printed only as a drawing) [Compound 151]
11 µM | WNLVRIGLLR (also: further groups not given here, Structure printed only as a drawing) [Compound 146]
11 µM | WNLVRIGLLR (also: further groups not given here, Structure printed only as a drawing) [Compound 149]
≥ 50 µM | Ac-GLMPWNLVRIGLLR-NH2 [Compound 124]
≥ 50 µM | Ac-GGMPWNLVRIGLLR-NH2 [Compound 125]
≥ 50 µM | WNLVRIGLLR (also: further groups not given here, Structure printed only as a drawing) [Compound 131]
12 µM | Ac-MDSFPGWNLVRIGLLR-NH2 [Compound 153]
2.6 µM | WNLVRIGLLR (also: further groups not given here, Structure printed only as a drawing) [Compound 147]
9.7 µM | WNLVRIGLLR (also: further groups not given here, Structure printed only as a drawing) [Compound 144]
≥ 50 µM | WNLVRIGLLR (also: further groups not given here, Structure printed only as a drawing) [Compound 134]
11 µM | Ac-SFAFPGWNLVRIGLLR-NH2 [Compound 154]
7.3 µM | WNLVRIGLLR (also: further groups not given here, Structure printed only as a drawing) [Compound 145]
≥ 50 µM | WNLVRIGLLR (also: further groups not given here, Structure printed only as a drawing) [Compound 133]

IC50 | Binder
≥ 50 µM | B2
43 µM | Pentanoyl-WNLVRIGLLR [Compound 152]
≥ 50 µM | WNLVRIGLLR (also: further groups not given here, Structure printed only as a drawing) [Compound 141]
≥ 50 µM | WNLVRIGLLR (also: further groups not given here, Structure printed only as a drawing) [Compound 140]
≥ 50 µM | WNLVRIGLLR (also: further groups not given here, Structure printed only as a drawing) [Compound 126]
≥ 50 µM | WNLVRIGLLR (also: further groups not given here, Structure printed only as a drawing) [Compound 127]
≥ 50 µM | B3
11 µM | Ac-DSYPGWNLVRIGLLR-NH2 [Compound 155]
11 µM | Ac-ESYPGWNLVRIGLLR-NH2 [Compound 156]
≥ 50 µM | WNLVRIGLLR (also: further groups not given here, Structure printed only as a drawing) [Compound 142]
≥ 50 µM | WNLVRIGLLR (also: further groups not given here, Structure printed only as a drawing) [Compound 129]
≥ 50 µM | WNLVRIGLLR (also: further groups not given here, Structure printed only as a drawing) [Compound 128]
≥ 50 µM | Ac-DLMPWNLKRIGLLR-NH2 [Compound 158]
≥ 50 µM | WNLVRIGLLR (also: further groups not given here, Structure printed only as a drawing) [Compound 137]
22 µM | WNLVRIGLLR (also: further groups not given here, Structure printed only as a drawing) [Compound 150]
≥ 50 µM | WNLVRIGLLR (also: further groups not given here, Structure printed only as a drawing) [Compound 143]
26 µM | B4
48 µM | WNLVRIGLLR (also: further groups not given here, Structure printed only as a drawing) [Compound 138]
≥ 50 µM | B5
19 µM | WNLVRIGLLR (also: further groups not given here, Structure printed only as a drawing) [Compound 148]
≥ 50 µM | WNLVRIGLLR (also: further groups not given here, Structure printed only as a drawing) [Compound 130]
